# Patent US20200087416A1
# Assays:
# [1] = target: cynomolgus PCSK-9 (cynomolgus); assay: BLI (ForteBio), IgG on AHQ sensor, 100 nM antigen
# [2] = target: human PCSK9 (PCSK9 antigen, SEQ ID NO. 53) (human); assay: MSD-SET, Fab with biotin-PCSK9 in solution, IgG on plate, pH 6.0
# [3] = target: cynomolgus PCSK-9 (cynomolgus); assay: MSD-SET, Fab with biotin-PCSK9 in solution, IgG on plate, pH 7.4
# [4] = target: human PCSK9 (PCSK9 antigen, SEQ ID NO. 53) (human); assay: as above
# [5] = target: murine PCSK-9 (murine) (UniProt Q80W65); assay: as above
# [6] = target: human PCSK9 (PCSK9 antigen, SEQ ID NO. 53) (human); assay: cell-based or functional assay
# [7] = target: human PCSK9 (PCSK9 antigen, SEQ ID NO. 53) (human); assay: flow cytometry, PCSK9 left on CHO-LDLR cells (anti-His-FITC) after premix with 1 nM control IgG
# [8] = target: human PCSK9 (PCSK9 antigen, SEQ ID NO. 53) (human); assay: flow cytometry, PCSK9 left on CHO-LDLR cells (anti-His-FITC) after premix with 10 nM control IgG
# [9] = target: human PCSK9 (PCSK9 antigen, SEQ ID NO. 53) (human); assay: flow cytometry, PCSK9 left on CHO-LDLR cells (anti-His-FITC) after premix with 0.1 nM control IgG
# [10] = target: human PCSK9 (PCSK9 antigen, SEQ ID NO. 53) (human); assay: flow cytometry, PCSK9 left on CHO-LDLR cells (anti-His-FITC) after premix with 100 nM control IgG
# [11] = target: human PCSK9 (PCSK9 antigen, SEQ ID NO. 53) (human); assay: flow cytometry, PCSK9 left on CHO-LDLR cells (anti-His-FITC) after premix with 1000 nM control IgG
substance,measurement,setting,value
Alirocumab (antibody),Kd,[1],0.383 nM
Alirocumab Fab,Kd,[2],0.051 nM
same,Kd,[3],0.082 nM
same,Kd,[4],0.072 nM
same,Kd,[5],0.3 nM
Bococizumab (antibody),Kd,[1],0.476 nM
Evolocumab (antibody),Kd,[1],1.3 nM
Evolocumab Fab,Kd,[3],0.0082 nM
same,Kd,[4],0.016 nM
IgG (negative control) (antibody),"BODIPY-LDL uptake by HepG2 cells, fluorescence, 4.2 nM, replicate 1",[6],0.358
same,"BODIPY-LDL uptake by HepG2 cells, fluorescence, 4.2 nM, replicate 2",[6],0.325
same,"BODIPY-LDL uptake by HepG2 cells, fluorescence, 16.8 nM, replicate 1",[6],0.297
same,"BODIPY-LDL uptake by HepG2 cells, fluorescence, 16.8 nM, replicate 2",[6],0.309
same,"BODIPY-LDL uptake by HepG2 cells, fluorescence, 66.7 nM, replicate 1",[6],0.329
same,"BODIPY-LDL uptake by HepG2 cells, fluorescence, 66.7 nM, replicate 2",[6],0.288
same,Fluorescence Signal Value,[7],6730
same,Fluorescence Signal Value,[8],6960
same,Fluorescence Signal Value,[9],7000
same,Fluorescence Signal Value,[10],7520
same,Fluorescence Signal Value,[11],8920
